Experimental data taken from article PMC12668182, “Molecular basis for CSB stimulation of the SNM1A DNA repair nuclease” (Research Square, 2025).
“And” between values parts separate entries of the source, which are not always exact repeats. Equal entries are not always repeated.

B2: N-Avi-Biotin-SNM1A (a.a. 698-1040), wild type (domain or fragment, human, UniProt Q6PJP8 698-1040, looked up)
chain: KKTCPFYKKIPGTGFTVDAFQYGVVEGCTAYFLTHFHSDHYAGLSKHFTFPVYCSEITGNLLKNKLHVQEQYIHPLPLDTECIVNGVKVVLLDANHCPGAVMILFYLPNGTVILHTGDFRADPSMERSLLADQKVHMLYLDTTYCSPEYTFPSQQEVIRFAINTAFEAVTLNPHALVVCGTYSIGKEKVFLAIADVLGSKVGMSQEKYKTLQCLNIPEINSLITTDMCSSLVHLLPMMQINFKGLQSHLKKCGGKYNQILAFRPTGWTHSNKFTRIADVIPQTKGNISIYGIPYSEHSSYLEMKRFVQWLKPQKIIPTVNVGTWKSRSTMEKYFREWKLEAGY
modifications: biotin on the N-terminal Avi tag
notes: SNM1A (DCLRE1A), human, core catalytic domain (MBL-beta-CASP), residues 698-1040; Immobilised in SPR through the biotinylated Avi tag; held on streptavidin mutein beads in the co-purifications; also called N-Avi-SNM1A_(698-1040); core catalytic domain of SNM1A; source: Sf9 insect cells (BirA co-expressed, D-biotin added), purified (streptavidin mutein matrix, Superdex S75); not shown: Avi …
B5: E864A-SNM1A (MBL-beta-CASP domain, a.a. 698-1040), N-Avi (domain or fragment, human, UniProt Q6PJP8 698-1040, looked up)
chain: KKTCPFYKKIPGTGFTVDAFQYGVVEGCTAYFLTHFHSDHYAGLSKHFTFPVYCSEITGNLLKNKLHVQEQYIHPLPLDTECIVNGVKVVLLDANHCPGAVMILFYLPNGTVILHTGDFRADPSMERSLLADQKVHMLYLDTTYCSPEYTFPSQQEVIRFAINTAFAAVTLNPHALVVCGTYSIGKEKVFLAIADVLGSKVGMSQEKYKTLQCLNIPEINSLITTDMCSSLVHLLPMMQINFKGLQSHLKKCGGKYNQILAFRPTGWTHSNKFTRIADVIPQTKGNISIYGIPYSEHSSYLEMKRFVQWLKPQKIIPTVNVGTWKSRSTMEKYFREWKLEAGY
modifications: biotin on the N-terminal Avi tag
notes: SNM1A (DCLRE1A), human, core catalytic domain, residues 698-1040, E864A; also called SNM1A-E864A; SNM1A (E864A); source: Sf9 insect cells (D-biotin added), purified (streptavidin mutein matrix, gel filtration)

How the values were obtained:
[1] = biological target: B2; experiment: SPR; single-cycle; SNM1A immobilised via biotinylated N-terminal Avi tag on a Series S SA surface (~4000 RU); CSB constructs as analytes, 5 or 6 two-fold dilutions from 500 nM or 1 uM; 20 mM HEPES pH 7.5, 150 mM NaCl, 0.5 mM TCEP; 1:1 Langmuir fit; apparent KD; details: both partners purified
[2] = biological target: B5; experiment: as above; details: both partners purified
[3] = biological target: B2; experiment: pull-down + SEC; co-purification: CSB construct (eluted from Ni-NTA, desalted) incubated with N-Avi-Biotin-SNM1A on streptavidin mutein beads, washed (500 mM NaCl, 1 mM Mg2+), eluted with 5 mM D-biotin, run on Superdex S200 GL 10/300; SDS-PAGE, MS and calibration curve; details: both partners purified
[4] = biological target: T1, full-length CSB (ERCC6), wild type, recombinant (human, UniProt Q03468 1-1493); experiment: SPR; single-cycle; SNM1A immobilised via biotinylated N-terminal Avi tag on a Series S SA surface (~4000 RU); CSB constructs as analytes, 5 or 6 two-fold dilutions from 500 nM or 1 uM; 20 mM HEPES pH 7.5, 150 mM NaCl, 0.5 mM TCEP; 1:1 Langmuir fit; apparent KD; details: both partners purified
T1 construct: CSB (ERCC6), human, full length, a.a; A TEV site follows the N-terminal tags, but no cleavage is described; also called FL-CSB; WT-CSB; source: Sf9 insect cells, purified (Ni-NTA, Superdex S200, HiTrap SP)

[5] = biological target: T1, full-length CSB (ERCC6), wild type, …; experiment: mass photometry; CSB and SNM1A mixed at 200 nM each, 5 min at room temperature, diluted 10-fold into the gasket; 50 mM HEPES pH 7.5, 300 mM NaCl, 0.5 mM TCEP; KD from mass counts; details: both partners purified
[6] = biological target: T2, HaloTag-CSB, full length, JaneliaFluor-labelled (human, UniProt Q03468 1-1493, JaneliaFluor dye (JF552 or JF635) on the HaloTag); experiment: single-molecule fluorescence on tethered DNA (SMADNE, LUMICKS C-Trap); partially purified HaloTag-JF-552 SNM1A added to HaloTag-CSB (JF635) nuclear extract, on lambda dsDNA; category 9 colocalisation events; apparent constants; DNA present; details: one partner purified
T2 construct: CSB (ERCC6), human, full length, codon-optimised for mammalian expression; Vectors with N-terminal HaloTag under a CMV promoter (Promega pFN28A or Addgene 58241, both used on separate days); also called CSB (JF-635, red); CSB (JF552, green); source: Expi293F, transfected, in nuclear extract; not shown: HaloTag, N-terminal, kept

[7] = biological target: T2, HaloTag-CSB, full length, …; experiment: single-molecule fluorescence on tethered DNA (SMADNE, LUMICKS C-Trap); partially purified HaloTag-JF-552 SNM1A added to HaloTag-CSB (JF635) nuclear extract, on a site-specific ICL flap repair intermediate in 12 kb DNA; apparent constants; DNA present; details: one partner purified
[8] = biological target: B2; experiment: SPR; multi-cycle; SNM1A immobilised via biotinylated N-terminal Avi tag (~4000 RU); two-fold dilutions from 2 uM, 300 s injection, 1200 s dissociation; regeneration with 1 M NaCl; apparent KD; details: both partners purified
[9] = biological target: the molecule itself; experiment: SEC-MALS; DN-CSB alone, 5 uM; monomer to dimer

B1: CSB C-terminal domain (a.a. 1187-1493) (domain or fragment, human, UniProt Q03468 1187-1493, looked up)
chain: HHSVAEEETLEKHLRPKQKPKNSKHCRDAKFEGTRIPHLVKKRRYQKQDSENKSEAKEQSNDDYVLEKLFKKSVGVHSVMKHDAIMDGASPDYVLVEAEANRVAQDALKALRLSRQRCLGAVSGVPTWTGHRGISGAPAGKKSRFGKKRNSNFSVQHPSSTSPTEKCQDGIMKKEGKDNVPEHFSGRAEDADSSSGPLASSSLLAKMRARNHLILPERLESESGHLQEASALLPTTEHDDLLVEMRNFIAFQAHTDGQASTREILQEFESKLSASQSCVFRELLRNLCTFHRTSGGEGIWKLKPEYC
notes: pNIC28-Bsa4 vector: N-terminal His6 followed by a TEV site; no cleavage is described; also called C-terminal CSB construct; source: E. coli BL21(DE3) pLysS, purified (Ni-NTA, Superdex S75)
Question: With B1 as the binder, how does the Kd [1] read?
Answer: 10.7 nM and 12 nM

Question: What about the Kd [2] of the same binder?
Answer: 29 nM

Question: What about the “stoichiometry N” value [3] of the same binder?
Answer: 2

Question: For B2, which Kd [4] is on record?
Answer: 4.8 nM and 4 nM

B3: SNM1A (a.a. 698-1040), tag of the preparation not stated (domain or fragment, human, UniProt Q6PJP8 698-1040, looked up)
chain: KKTCPFYKKIPGTGFTVDAFQYGVVEGCTAYFLTHFHSDHYAGLSKHFTFPVYCSEITGNLLKNKLHVQEQYIHPLPLDTECIVNGVKVVLLDANHCPGAVMILFYLPNGTVILHTGDFRADPSMERSLLADQKVHMLYLDTTYCSPEYTFPSQQEVIRFAINTAFEAVTLNPHALVVCGTYSIGKEKVFLAIADVLGSKVGMSQEKYKTLQCLNIPEINSLITTDMCSSLVHLLPMMQINFKGLQSHLKKCGGKYNQILAFRPTGWTHSNKFTRIADVIPQTKGNISIYGIPYSEHSSYLEMKRFVQWLKPQKIIPTVNVGTWKSRSTMEKYFREWKLEAGY
notes: SNM1A (DCLRE1A), human, core catalytic domain, residues 698-1040; Used for HDX-MS, mass photometry and nuclease assays; Mass photometry legend gives an expected mass of 36 kDa; also called C-terminal SNM1A; source: purified from insect cells
Question: How did the Kd [5] turn out when B3 was run?
Answer: 499 nM

B4: HaloTag-JF-552-labelled SNM1A (a.a. 698-1040), partially purified (domain or fragment, human, UniProt Q6PJP8 698-1040, looked up)
chain: KKTCPFYKKIPGTGFTVDAFQYGVVEGCTAYFLTHFHSDHYAGLSKHFTFPVYCSEITGNLLKNKLHVQEQYIHPLPLDTECIVNGVKVVLLDANHCPGAVMILFYLPNGTVILHTGDFRADPSMERSLLADQKVHMLYLDTTYCSPEYTFPSQQEVIRFAINTAFEAVTLNPHALVVCGTYSIGKEKVFLAIADVLGSKVGMSQEKYKTLQCLNIPEINSLITTDMCSSLVHLLPMMQINFKGLQSHLKKCGGKYNQILAFRPTGWTHSNKFTRIADVIPQTKGNISIYGIPYSEHSSYLEMKRFVQWLKPQKIIPTVNVGTWKSRSTMEKYFREWKLEAGY
modifications: JF-552 dye on the HaloTag
notes: SNM1A (DCLRE1A), human, catalytic C-terminal domain, residues 698-1040; Addgene vector (printed as Addgene: 58241) giving an N-terminal His-Halo tag; also called SNM1A (JF-552, green); SNM1A_(698-1040) for single-molecule studies; source: Expi293F, transfected, partially purified (Ni-NTA); not shown: HaloTag, N-terminal, kept
Question: B4 was tested. Which “apparent KD of SNM1A for CSB-bound lambda dsDNA” value [6] did it give?
Answer: 17.5 nM

Question: What about the “apparent KD of SNM1A for the CSB-bound ICL repair intermediate” value [7] of the same binder?
Answer: 45 nM

Question: B5 was tested. Which Kd [4] did it give?
Answer: 8 nM

B6: CSB (a.a. 1308-1493) (domain or fragment, human, UniProt Q03468 1308-1493, looked up)
chain: VSGVPTWTGHRGISGAPAGKKSRFGKKRNSNFSVQHPSSTSPTEKCQDGIMKKEGKDNVPEHFSGRAEDADSSSGPLASSSLLAKMRARNHLILPERLESESGHLQEASALLPTTEHDDLLVEMRNFIAFQAHTDGQASTREILQEFESKLSASQSCVFRELLRNLCTFHRTSGGEGIWKLKPEYC
notes: source: E. coli BL21(DE3) pLysS, purified (Ni-NTA, Superdex S75)
Question: Does B6 bind [8]?
Answer: binds

B7: CSB lacking the N-terminal domain (DN-CSB, a.a. 402-1493) (domain or fragment, human, UniProt Q03468 402-1493, looked up)
chain: YELKPLPKGGKRQKKVPVQEIDDDFFPSSGEEAEAASVGEGGGGGRKVGRYRDDGDEDYYKQRLRRWNKLRLQDKEKRLKLEDDSEESDAEFDEGFKVPGFLFKKLFKYQQTGVRWLWELHCQQAGGILGDEMGLGKTIQIIAFLAGLSYSKIRTRGSNYRFEGLGPTVIVCPTTVMHQWVKEFHTWWPPFRVAILHETGSYTHKKEKLIRDVAHCHGILITSYSYIRLMQDDISRYDWHYVILDEGHKIRNPNAAVTLACKQFRTPHRIILSGSPMQNNLRELWSLFDFIFPGKLGTLPVFMEQFSVPITMGGYSNASPVQVKTAYKCACVLRDTINPYLLRRMKSDVKMSLSLPDKNEQVLFCRLTDEQHKVYQNFVDSKEVYRILNGEMQIFSGLIALRKICNHPDLFSGGPKNLKGLPDDELEEDQFGYWKRSGKMIVVESLLKIWHKQGQRVLLFSQSRQMLDILEVFLRAQKYTYLKMDGTTTIASRQPLITRYNEDTSIFVFLLTTRVGGLGVNLTGANRVVIYDPDWNPSTDTQARERAWRIGQKKQVTVYRLLTAGTIEEKIYHRQIFKQFLTNRVLKDPKQRRFFKSNDLYELFTLTSPDASQSTETSAIFAGTGSDVQTPKCHLKRRIQPAFGADHDVPKRKKFPASNISVNDATSSEEKSEAKGAEVNAVTSNRSDPLKDDPHMSSNVTSNDRLGEETNAVSGPEELSVISGNGECSNSSGTGKTSMPSGDESIDEKLGLSYKRERPSQAQTEAFWENKQMENNFYKHKSKTKHHSVAEEETLEKHLRPKQKPKNSKHCRDAKFEGTRIPHLVKKRRYQKQDSENKSEAKEQSNDDYVLEKLFKKSVGVHSVMKHDAIMDGASPDYVLVEAEANRVAQDALKALRLSRQRCLGAVSGVPTWTGHRGISGAPAGKKSRFGKKRNSNFSVQHPSSTSPTEKCQDGIMKKEGKDNVPEHFSGRAEDADSSSGPLASSSLLAKMRARNHLILPERLESESGHLQEASALLPTTEHDDLLVEMRNFIAFQAHTDGQASTREILQEFESKLSASQSCVFRELLRNLCTFHRTSGGEGIWKLKPEYC
notes: Cloned by InFusion from the full-length CSB pFastBac vector
Question: With B7 as the binder, how does the “stoichiometry N” value [9] read?
Answer: 2

B8: CSB winged-helix domain (WHD, a.a. 1424-1493) (domain or fragment, human, UniProt Q03468 1424-1493, looked up)
chain: HDDLLVEMRNFIAFQAHTDGQASTREILQEFESKLSASQSCVFRELLRNLCTFHRTSGGEGIWKLKPEYC
notes: also called CSB-WHD; source: E. coli BL21(DE3) pLysS, purified (Ni-NTA, Superdex S75)
Question: With B8 as the binder, how does the Kd [1] read?
Answer: 89 nM

Question: What about the Kd [2] of the same binder?
Answer: ~1000 nM

Question: And the “stoichiometry N” value [3]?
Answer: 1
